Laboratory results as given in patent CN113004395A (JIANGSU PROVINCIAL CENTER FOR DISEASE CONTROL AND …, dated 2021).

B1: JS14 (antibody, V domains shown)
VH: EVQLLESGGGVVQPGRSLRLSCAASGFTFSSYGMHWVRQAPGKGLEWVAVIWYDGSNKYYADSVKGRFTISRDNSKNTLYLQMNSLRAEDTAVYYCARDGSGSYYWGSLDYWGQGTLVTVSS
VL: not shown
B2: JS06 (antibody, V domains shown)
VH: EVQLLESGGGVVQPGRSLRLSCAASGFTFSSYGMHWVRQAPGKGLEWVAVIWYDGSNKYYADSVKGRFTISRDNSKNTLYLQMNSLRAEDTAVYYCARAAYGPYYGMDVWGQGTTVTVSS
VL: not shown
B3: JS01 (antibody, V domains shown)
VH: QVQLVESGAEVKKPGSSVKVSCKASGGTFSSYAISWVRQAPGQGLEWMGGIIPIFGTANYAQKFQGRVTITADESTSTAYMELSSLRSEDTAVYYCARGGWRSSGYHDYSYYGMDVWGQGTTVTVSS
VL: not shown
B4: JS13 (antibody, V domains shown)
VH: QVQLVQSGAEVKKPGSSVKVSCKASGGTFSSYAISWVRQAPGQGLEWMGGIIPIFGTANYAQKFQGRVTITADESTSTAYMELSSLRSEDTAVYYCARGGWVICSSTSCYTKYSYYGMDVWGQGTTVTVSS
VL: QSVLTQPPSVSAAPGQKVTISCSGSSSNIGNNYVSWYQQLPGTAPKLLIYDNNKRPSGIPDRFSGSKSGTSATLGITGLQTGDEADYYCGTWDSSLIARLFGGGTKLTVL
B5: JS11 (antibody, V domains shown)
VH: EVQLLESGGGVVQPGRSLRLSCAASGFTFSSYGMHWVRQAPGKGLEWVAVIWYDGSNKYYADSVKGRFTISRDNSKNTLYLQMNSLRAEDTAVYYCVGPLMVRGVIIPWGQGTLVTVSS
VL: not shown
B6: JS08 (antibody, V domains shown)
VH: QVQLVQSGPGLVKPSETLSLTCTVSGGSISSYYWSWIRQPPGKGLEWIGNIYYSGSTDYNPSLKSRVTISVDTSKNQFSLRLSSVTAADTAVYYCAREQFSGGDYEGFDFWGQGTLVTVSS
VL: QSVLTQEPSVSGAPGQRVTISCTGSSSNIGAGYDVHWYQQLPGTAPKLLIYGNSNRPSGVPDRFSGSKSGTSASLAITGLQAEDEADYYCQSYDSSLSGWVFGGGTKLTVL
B7: JS05 (antibody, V domains shown)
VH: EVQLLESGGGVVQPGRSLRLSCAASGFIFSSYGMHWVRQAPGKGLEWVAVIWYDGSNKYYADSVKGRFTISRDNSKNTLYLQMNSLRAEDTAVYYCARDLRGPTGWTFDYWGQGTLVTVSS
VL: ENVLTQSPATLSLSPGERATLSCRASQSVSNYLAWYQQRPGQAPRLLIYDSSNRATGIPARFSGSGSGTDFTLTISSLEPEDFAVYYCQHRSNWKITFGQGTRLEIK
B8: JS12 (antibody, V domains shown)
VH: EVQLLESGGGVVQPGRSLRLSCAASGFTFSSYGMHWVRQAPGKGLEWVAVIWYDGSNKYYADSVKGRFTISRDNSKNTLYLQMNSLRAEDTAVYYCARDGSGSYYWGSLDYWGQGTLVTVSS
VL: ENVLTQSPATLSLSPGERATLSCRASQSVSSYLAWYQQKPGQAPRLLIYGASNRATGIPARFSGSGSGTDFTLTISSLEPEDFAVYYCQQRSNWPWTFGQGTKVEIK

Assays:
重组SARS-CoV2核蛋白(NP) [1] = target: T1, 重组SARS-CoV2核蛋白(NP) (SARS-CoV-2, UniProt P0DTC9 1-419)
重组SARS-CoV2核蛋白(NP) [2] = target: T1, 重组SARS-CoV2核蛋白(NP); test: double-antibody sandwich lateral-flow strip, paired with JS08
重组SARS-CoV2核蛋白(NP) [3] = target: 重组SARS-CoV2核蛋白(NP) (SARS-CoV-2, UniProt P0DTC9 1-419); remark: listed apart in the source

| Binder | Kd (重组SARS-CoV2核蛋白(NP) [1]) | koff (重组SARS-CoV2核蛋白(NP) [1]) | kon (重组SARS-CoV2核蛋白(NP) [1]) | 检测限 (detection limit for NP) (重组SARS-CoV2核蛋白(NP) [2]) | Kd (重组SARS-CoV2核蛋白(NP) [3]) | koff (重组SARS-CoV2核蛋白(NP) [3]) | kon (重组SARS-CoV2核蛋白(NP) [3]) |
| --- | --- | --- | --- | --- | --- | --- | --- |
| B1 | 0.178 nM | 0.000221 s⁻¹ | 1.24e+06 M⁻¹ s⁻¹ | < 2 ng/mL |  |  |  |
| B2 |  |  |  |  | 16.1 nM | 0.00258 s⁻¹ | 161000 M⁻¹ s⁻¹ |
| B3 | 0.22 nM | 0.000479 s⁻¹ | 2.18e+06 M⁻¹ s⁻¹ | < 2 ng/mL |  |  |  |
| B4 | 0.12 nM | 9.66e-05 s⁻¹ | 805000 M⁻¹ s⁻¹ | < 2 ng/mL |  |  |  |
| B5 | 0.292 nM | 5.62e-05 s⁻¹ | 193000 M⁻¹ s⁻¹ |  |  |  |  |
| B6 |  |  |  |  | 0.19 nM | 5.77e-06 s⁻¹ | 30300 M⁻¹ s⁻¹ |
| B7 | 0.409 nM | 0.000243 s⁻¹ | 594000 M⁻¹ s⁻¹ | < 2 ng/mL |  |  |  |
| B8 | 0.15 nM | 7.33e-05 s⁻¹ | 488000 M⁻¹ s⁻¹ | < 2 ng/mL |  |  |  |
